Test system: CC(C)C[C@H](NC(=O)[C@H](CO)NC(=O)[C@H](C)NC(=O)[C@H](CCCNC(=N)N)NC(=O)[C@H](CCCNC(=N)N)NC(=O)[C@@H](N)CC(C)C)C(=O)NCC(=O)O
Assay type: biochemical
Conditions: other: from the noncompetitive inhibition model fit; pH 7.4

PKA (Homo sapiens)
Km: 12 µM

Source: article PMC2749490
